# Experimental data reported in IntAct's records for PubMed 31515488.
# B1: F-box/WD repeat-containing protein 1A (Homo sapiens), Q9Y297 (parent)
# chain: MDPAEAVLQEKALKFMCSMPRSLWLGCSSLADSMPSLRCLYNPGTGALTAFQNSSEREDCNNGEPPRKIIPEKNSLRQTYNSCARLCLNQETVCLASTAMKTENCVAKTKLANGTSSMIVPKQRKLSASYEKEKELCVKYFEQWSESDQVEFVEHLISQMCHYQHGHINSYLKPMLQRDFITALPARGLDHIAENILSYLDAKSLCAAELVCKEWYRVTSDGMLWKKLIERMVRTDSLWRGLAERRGWGQYLFKNKPPDGNAPPNSFYRALYPKIIQDIETIESNWRCGRHSLQRIHCRSETSKGVYCLQYDDQKIVSGLRDNTIKIWDKNTLECKRILTGHTGSVLCLQYDERVIITGSSDSTVRVWDVNTGEMLNTLIHHCEAVLHLRFNNGMMVTCSKDRSIAVWDMASPTDITLRRVLVGHRAAVNVVDFDDKYIVSASGDRTIKVWNTSTCEFVRTLNGHKRGIACLQYRDRLVVSGSSDNTIRLWDIECGACLRVLEGHEELVRCIRFDNKRIVSGAYDGKIKVWDLVAALDPRAPAGTLCLRTLVEHSGRVFRLQFDEFQIVSSSHDDTILIWDFLNDPAAQAEPPRSPSRTYTYISR
# B2: STAM-binding protein (Homo sapiens), O95630 (parent)
# chain: MSDHGDVSLPPEDRVRALSQLGSAVEVNEDIPPRRYFRSGVEIIRMASIYSEEGNIEHAFILYNKYITLFIEKLPKHRDYKSAVIPEKKDTVKKLKEIAFPKAEELKAELLKRYTKEYTEYNEEKKKEAEELARNMAIQQELEKEKQRVAQQKQQQLEQEQFHAFEEMIRNQELEKERLKIVQEFGKVDPGLGGPLVPDLEKPSLDVFPTLTVSSIQPSDCHTTVRPAKPPVVDRSLKPGALSNSESIPTIDGLRHVVVPGRLCPQFLQLASANTARGVETCGILCGKLMRNEFTITHVLIPKQSAGSDYCNTENEEELFLIQDQQGLITLGWIHTHPTQTAFLSSVDLHTHCSYQMMLPESVAIVCSPKFQETGFFKLTDHGLEEISSCRQKGFHPHSKDPPLFCSCSHVTVVDRAVTITDLR
# B3: Four and a half LIM domains protein 3 (Homo sapiens), Q13643 (parent)
# chain: MSESFDCAKCNESLYGRKYIQTDSGPYCVPCYDNTFANTCAECQQLIGHDSRELFYEDRHFHEGCFRCCRCQRSLADEPFTCQDSELLCNDCYCSAFSSQCSACGETVMPGSRKLEYGGQTWHEHCFLCSGCEQPLGSRSFVPDKGAHYCVPCYENKFAPRCARCSKTLTQGGVTYRDQPWHRECLVCTGCQTPLAGQQFTSRDEDPYCVACFGELFAPKCSSCKRPIVGLGGGKYVSFEDRHWHHNCFSCARCSTSLVGQGFVPDGDQVLCQGCSQAGP
# Variants of: B1
# Conditions: with tacc1_human TACC1, O75410
# Chain of tacc1_human TACC1, O75410 (O75410 whole entry): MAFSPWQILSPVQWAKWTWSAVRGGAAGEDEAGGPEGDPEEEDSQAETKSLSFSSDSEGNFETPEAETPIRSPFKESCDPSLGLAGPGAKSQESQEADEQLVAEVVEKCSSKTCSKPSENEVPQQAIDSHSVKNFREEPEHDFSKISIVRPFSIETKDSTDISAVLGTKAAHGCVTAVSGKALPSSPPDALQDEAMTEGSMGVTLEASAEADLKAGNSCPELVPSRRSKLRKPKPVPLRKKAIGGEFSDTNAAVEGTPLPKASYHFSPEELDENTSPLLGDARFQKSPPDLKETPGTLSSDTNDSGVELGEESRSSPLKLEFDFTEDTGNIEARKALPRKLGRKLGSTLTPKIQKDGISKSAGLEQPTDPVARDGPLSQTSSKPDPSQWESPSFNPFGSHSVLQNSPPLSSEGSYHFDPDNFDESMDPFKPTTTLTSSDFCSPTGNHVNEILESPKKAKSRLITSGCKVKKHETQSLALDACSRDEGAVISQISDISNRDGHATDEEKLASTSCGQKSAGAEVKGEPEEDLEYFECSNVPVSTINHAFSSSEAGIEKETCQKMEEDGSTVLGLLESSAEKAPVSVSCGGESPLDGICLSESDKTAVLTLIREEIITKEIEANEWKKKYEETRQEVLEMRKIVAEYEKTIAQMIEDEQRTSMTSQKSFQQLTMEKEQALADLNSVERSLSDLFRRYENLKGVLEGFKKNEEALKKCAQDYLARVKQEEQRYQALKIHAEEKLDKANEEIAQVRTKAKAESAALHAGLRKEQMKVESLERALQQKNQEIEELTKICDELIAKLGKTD
row,Variant,effect of a mutation on the interaction
1,L8M,with no effect
2,T414A,disrupting interaction strength
3,T601S,with no effect
4,I439V,disrupting interaction strength
5,P592H,with no effect

# Variants of: B2
# Conditions: with grb2_human GRB2, P62993
# Chain of grb2_human GRB2, P62993 (P62993 whole entry, looked up): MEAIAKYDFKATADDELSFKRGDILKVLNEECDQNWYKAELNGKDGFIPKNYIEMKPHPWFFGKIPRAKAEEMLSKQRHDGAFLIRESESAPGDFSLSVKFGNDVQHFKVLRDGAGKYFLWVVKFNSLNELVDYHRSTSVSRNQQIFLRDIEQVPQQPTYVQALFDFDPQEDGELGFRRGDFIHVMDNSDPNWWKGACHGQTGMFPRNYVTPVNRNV
row,Variant,effect of a mutation on the interaction
1,Q155H,disrupting interaction strength
2,R255H,with no effect
3,E167K,disrupting interaction strength

# Variants of: B2
# Conditions: with stam2_human STAM2, O75886
row,Variant,effect of a mutation on the interaction
1,Q155H,disrupting interaction strength
2,R255H,with no effect

# Variants of: B3
# Conditions: with FAM90A1, Q86YD7
# Chain of FAM90A1, Q86YD7 (Q86YD7 whole entry): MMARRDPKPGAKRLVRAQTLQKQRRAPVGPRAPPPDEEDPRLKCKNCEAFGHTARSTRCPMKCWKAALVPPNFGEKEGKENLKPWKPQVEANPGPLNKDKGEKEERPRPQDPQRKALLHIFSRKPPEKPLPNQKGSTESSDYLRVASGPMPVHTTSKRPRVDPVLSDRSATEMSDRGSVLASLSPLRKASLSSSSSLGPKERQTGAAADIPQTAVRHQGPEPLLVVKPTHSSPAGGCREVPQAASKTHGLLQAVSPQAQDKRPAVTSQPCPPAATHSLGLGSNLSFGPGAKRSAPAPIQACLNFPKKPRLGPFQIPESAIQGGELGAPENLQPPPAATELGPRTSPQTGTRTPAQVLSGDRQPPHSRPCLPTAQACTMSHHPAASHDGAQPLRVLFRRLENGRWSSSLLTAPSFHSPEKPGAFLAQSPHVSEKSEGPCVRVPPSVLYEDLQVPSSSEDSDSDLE
row,Variant,effect of a mutation on the interaction
1,A103T,with no effect

# Variants of: B3
# Conditions: with gata2_human GATA2, P23769
# Chain of gata2_human GATA2, P23769 (P23769 whole entry): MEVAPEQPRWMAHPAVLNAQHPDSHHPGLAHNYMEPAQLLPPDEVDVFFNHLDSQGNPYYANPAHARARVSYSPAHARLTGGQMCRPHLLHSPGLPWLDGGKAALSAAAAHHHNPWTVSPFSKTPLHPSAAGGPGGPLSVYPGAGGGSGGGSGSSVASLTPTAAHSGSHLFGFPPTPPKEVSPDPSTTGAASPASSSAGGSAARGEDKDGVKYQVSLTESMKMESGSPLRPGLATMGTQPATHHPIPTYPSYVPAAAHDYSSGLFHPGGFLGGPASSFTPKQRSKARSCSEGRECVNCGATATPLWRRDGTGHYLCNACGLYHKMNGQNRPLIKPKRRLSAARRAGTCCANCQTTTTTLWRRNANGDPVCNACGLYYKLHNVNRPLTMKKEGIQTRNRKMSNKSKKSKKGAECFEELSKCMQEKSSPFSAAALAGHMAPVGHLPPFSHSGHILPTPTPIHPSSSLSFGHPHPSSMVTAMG
row,Variant,effect of a mutation on the interaction
1,R226H,with no effect
